Test results taken from patent US20150203577A1 (Chugai, published 2015).

T1: mouse FcγRII extracellular domain, C-terminally His-tagged (mouse, UniProt P08101 30-210)
T1 construct: the whole entry is named; also called mFcγRII; mFcgRII
T1 sequence: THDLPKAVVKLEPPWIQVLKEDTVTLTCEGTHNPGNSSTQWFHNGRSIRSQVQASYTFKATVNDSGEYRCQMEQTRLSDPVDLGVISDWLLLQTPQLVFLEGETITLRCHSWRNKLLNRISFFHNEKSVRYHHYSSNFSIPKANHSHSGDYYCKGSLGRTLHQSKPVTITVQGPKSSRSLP

T2: mouse FcγRIII extracellular domain, C-terminally His-tagged (mouse, UniProt P08508 31-215)
T2 construct: the whole entry is named; also called mFcγRIII; mFcgRIII
T2 chain: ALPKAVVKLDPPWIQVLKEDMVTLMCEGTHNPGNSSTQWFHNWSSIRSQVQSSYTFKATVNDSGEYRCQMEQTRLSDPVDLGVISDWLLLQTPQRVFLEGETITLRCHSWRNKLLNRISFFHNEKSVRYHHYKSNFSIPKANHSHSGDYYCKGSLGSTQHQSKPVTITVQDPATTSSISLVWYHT

T3: mouse FcγRII (mouse, UniProt P08101 30-210)
T3 construct: also called mFcγRII; mFcgRII
T3 sequence: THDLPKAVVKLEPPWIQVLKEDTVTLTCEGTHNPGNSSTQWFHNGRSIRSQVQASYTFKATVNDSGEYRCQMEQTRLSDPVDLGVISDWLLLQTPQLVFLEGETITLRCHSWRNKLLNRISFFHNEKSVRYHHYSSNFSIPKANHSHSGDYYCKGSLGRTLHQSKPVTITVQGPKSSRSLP

T4: mouse FcγRIII (mouse, UniProt P08508 31-215)
T4 construct: also called mFcγRIII; mFcgRIII
T4 chain: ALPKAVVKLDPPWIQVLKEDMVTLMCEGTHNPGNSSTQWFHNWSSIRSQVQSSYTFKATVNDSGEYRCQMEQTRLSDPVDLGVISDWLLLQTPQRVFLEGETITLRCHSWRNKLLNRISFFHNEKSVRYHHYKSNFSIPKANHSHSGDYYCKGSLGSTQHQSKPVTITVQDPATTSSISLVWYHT


Tests used:
[1] = biological target: T1, mouse FcγRII extracellular domain, …; test: SPR Biacore T200, KD ratio
Description: (§1) The antibody H chain variable region used was the variable region H237 (SEQ ID NO: 1) of the H chain VH3-IgG1 of the anti-IL-6 receptor antibody Fv4-IgG1 described in WO2009/125825. The antibody L chain commonly used was the L chain MRAL-k0 (SEQ ID NO: 2) of the anti-IL-6 receptor antibody tocilizumab. […] The resulting variant groups were designated as MB397 variants and MB390 variants, respectively. These variants were expressed and purified by the method of Reference Example 1 and evaluated for their binding to mFcγRII and mFcγRIII by the method of Reference Example 2 using Biacore T200.
(§2) Each altered antibody was analyzed for its interaction with each Fcγ receptor prepared above using Biacore T100 (GE Healthcare Japan Corp.), Biacore T200 (GE Healthcare Japan Corp.), Biacore A100, or Biacore 4000. The running buffer used was HBS-EP+ (GE Healthcare Japan Corp.). The assay temperature was set to 25° C. The sensor chips used were chips prepared by immobilizing Protein L (ACTIGEN or BioVision) onto Series S Sensor Chip CM5 (GE Healthcare Japan Corp.) or Series S Sensor Chip CM4 (GE Healthcare Japan Corp.) by the amine coupling method.
(§3) In order to calculate the KD value of each altered antibody for FcγR, kinetic analysis was conducted according to the following method: first, the antibody of interest was captured onto any of these chips and allowed to interact with mFcγR diluted with a running buffer. For the obtained sensorgram, the assay results were globally fit into the 1:1 Langmuir binding model using Biacore Evaluation Software to calculate an association rate constant ka (L/mol/s) and a dissociation rate constant kd (1/s). From these values, the dissociation constant KD (mol/L) was calculated.

[2] = biological target: T2, mouse FcγRIII extracellular domain, …; test: SPR Biacore T200, KD ratio
Description: as §1, §2, §3

mouse FcγRII = biological target: T3, mouse FcγRII; test: SPR (Biacore), antibody captured on Protein L, mFcγR as analyte
mouse FcγRIII = biological target: T4, mouse FcγRIII; test: as above

Row | relative mFcγRII-binding activity (MB390 = 1) [1] [fold] | relative mFcγRII-binding activity (mIgG1 = 1) [1] [fold] | relative mFcγRIII-binding activity (MB390 = 1) [2] [fold] | relative mFcγRIII-binding activity (mIgG1 = 1) [2] [fold] | Kd (mouse FcγRII) [nM] | relative mFcγRII-binding activity (mIgG1 = 1) (mouse FcγRII) [fold] | Kd (mouse FcγRIII) [nM] | relative mFcγRIII-binding activity (mIgG1 = 1) (mouse FcγRIII) [fold] | Binder
1 | 1 | 522 | 1 | 11.9 |  |  |  |  | H237-MB390/MRAL-k0 (antibody, mouse IgG1, kappa, Template of the MB390 variants; copies: 2 + 2) heavy: QVQLQESGPGLVKPSETLSLTCAVSGHSISHDHAWSWVRQPPGEGLEWIGFISYSGITNYNPSLQGRVTISRDNSKNTLYLQMNSLRAEDTAVYYCARSLARTTAMDYWGEGTLVTVSSAKTTPPSVYPLAPGSAAQTNSMVTLGCLVKGYFPEPVTVTWNSGSLSSGVHTFPAVLQSDLYTLSSSVTVPSSTWPSETVTCNVAHPASSTKVDKKIVPRDCGCKPCICEPNEVEDVFIFPPKPKDVLTITLTPKVTCVVVDISKDDPEVQFSWFVDDVEVHTAQTQPREEQFNSTFRSVSELPIMHQDWLNGKEFKCRVNSAAFPAPIEKTISKTKGRPKAPQVYTIPPPKEQMAKDKVSLTCMITDFFPEDITVEWQWNGQPAENYKNTQPIMDTDGSYFVYSKLNVQKSNWEAGNTFTCSVLHEGLHNHHTEKSLSHSPGK light: not shown
2 |  |  |  |  | 246 | 1.47 | 7220 | 0.08 | H237-MB886/MRAL-k0 (antibody, mouse IgG1, kappa, mouse IgG1 CH variant; copies: 2 + 2) heavy: QVQLQESGPGLVKPSETLSLTCAVSGHSISHDHAWSWVRQPPGEGLEWIGFISYSGITNYNPSLQGRVTISRDNSKNTLYLQMNSLRAEDTAVYYCARSLARTTAMDYWGEGTLVTVSSAKTTPPSVYPLAPGSAAQTNSMVTLGCLVKGYFPEPVTVTWNSGSLSSGVHTFPAVLQSDLYTLSSSVTVPSSTWPSETVTCNVAHPASSTKVDKKIVPRDCGCKPCICEPNEEESVFIFPPKPKDVLTITLTPKVTCVVVDISKDDPEVQFSWFVDDVEVHTAQTQPREEQFNSTFRSVSELPIMHQDWLNGKEFKCRVNSAAFPAPIEKTISKTKGRPKAPQVYTIPPPKEQMAKDKVSLTCMITDFFPEDITVEWQWNGQPAENYKNTQPIMDTDGSYFVYSKLNVQKSNWEAGNTFTCSVLHEGLHNHHTEKSLSHSPGK light: not shown
3 |  |  |  |  | 111 | 3.29 | 4350 | 0.13 | H237-MB885/MRAL-k0 (antibody, mouse IgG1, kappa, mouse IgG1 CH variant; copies: 2 + 2) heavy: QVQLQESGPGLVKPSETLSLTCAVSGHSISHDHAWSWVRQPPGEGLEWIGFISYSGITNYNPSLQGRVTISRDNSKNTLYLQMNSLRAEDTAVYYCARSLARTTAMDYWGEGTLVTVSSAKTTPPSVYPLAPGSAAQTNSMVTLGCLVKGYFPEPVTVTWNSGSLSSGVHTFPAVLQSDLYTLSSSVTVPSSTWPSETVTCNVAHPASSTKVDKKIVPRDCGCKPCICEPAEEESVFIFPPKPKDVLTITLTPKVTCVVVDISKDDPEVQFSWFVDDVEVHTAQTQPREEQFNSTFRSVSELPIMHQDWLNGKEFKCRVNSAAFPAPIEKTISKTKGRPKAPQVYTIPPPKEQMAKDKVSLTCMITDFFPEDITVEWQWNGQPAENYKNTQPIMDTDGSYFVYSKLNVQKSNWEAGNTFTCSVLHEGLHNHHTEKSLSHSPGK light: not shown
4 |  |  |  |  | 43.6 | 4.78 | 3380 | 0.1 | H237-MB830/MRAL-k0 (antibody, mouse IgG1, kappa, mouse IgG1 CH variant; copies: 2 + 2) heavy: QVQLQESGPGLVKPSETLSLTCAVSGHSISHDHAWSWVRQPPGEGLEWIGFISYSGITNYNPSLQGRVTISRDNSKNTLYLQMNSLRAEDTAVYYCARSLARTTAMDYWGEGTLVTVSSAKTTPPSVYPLAPGSAAQTNSMVTLGCLVKGYFPEPVTVTWNSGSLSSGVHTFPAVLQSDLYTLSSSVTVPSSTWPSETVTCNVAHPASSTKVDKKIVPRDCGCKPCICEPNEVELVFIFPPKPKDVLTITLTPKVTCVVVDISKDDPEVQFSWFVDDVEVHTAQTQPREEQFNSTFRSVSELPIMHQDWLNGKEFKCRVNSAAFPAFIYKTISKTKGRPKAPQVYTIPPPKEQMAKDKVSLTCMITDFFPEDITVEWQWNGQPAENYKNTQPIMDTDGSYFVYSKLNVQKSNWEAGNTFTCSVLHEGLHNHHTEKSLSHSPGK light: not shown
